Consider one molecule from US20210230304A1 (SYSMEX, published 2021).

Test [1] concerns the target T1, HER2 protein (R&D Systems, Inc., Catalog No. 1129-ER) (UniProt P04626 23-652).
T1 construct: Bought reagent
Put plainly: SPR, Biacore T200; antigen immobilised, antibody as analyte. The protocol: (§1) The affinity of the prepared variants was measured using Biacore (registered trademark) T200 (GE Healthcare). […] Antigen was immobilized (immobilization: 50 RU) to a sensor chip for Biacore (registered trademark) Series S Sensor Chip CMS (GE Healthcare). The antibody solution was diluted to prepare antibody solutions of 30 nM, 15 nM, 7.5 nM, 3.75 nM and […]. The antibody solutions at each concentration were delivered to Biacore (registered trademark) T200 (GE Healthcare) (association time of 120 seconds and dissociation time of 1800 seconds). Measurement data was analyzed using Biacore (registered trademark) Evaluation software, and the data on the affinity of each antibody was obtained.
(§2) In the measurement, TSH protein (R&D Systems, Inc.) was used as an antigen of the anti-TSH antibody, and HER2 protein (R&D Systems, Inc., Catalog No. 1129-ER) was used as an antigen of the anti-HER2 antibody.
A general note: Surface plasmon resonance follows binding to a sensor surface in real time, without labels.

Test [2] addresses T1, HER2 protein (R&D Systems, Inc., …). Put plainly: SPR, Biacore T200; reference is the wild-type anti-HER2 antibody. The protocol: as §1, §2

B1: 76, 77, 81 variant (Arg) of the humanized anti-HER2 antibody (antibody, V domains shown)
VH: not shown
VL: DIQMTQSPSSLSASVGDRVTITCRASQDVNTAVAWYQQKPGKAPKLLIYSASFLYSGVPSRFSGSRSGTDFTLTIRRLQPRDFATYYCQQHYTTPPTFGQGTKVEIKR
On to B1, for which, in test [1], binding was put at a Kd of 0.0219 nM. Besides, the “Ratio (Kd against wild-type = 1)” value in test [2] was determined as 2.71.

By Kd is commonly meant the concentration at which binding is half-saturated. A lower Kd goes with a tighter complex.
